From article PMC4933246

Legend:
[1] = biological target: PHOX2B +7Ala fused to GAL4 BD or VP16 AD (human) (UniProt Q99453); assay: two-hybrid; mammalian two-hybrid (CheckMate, Promega) in neuroblastoma SK-N-BE(2)C cells; GAL4 BD fusion (pBIND) and VP16 AD fusion (pACT), 80 fmol each, with 160 fmol pG5LUC; Dual-Luciferase assay
[2] = biological target: PHOX2A, MYC- or HA-tagged (human) (UniProt O14813)
[3] = biological target: PHOX2B +13Ala fused to GAL4 BD or VP16 AD (human) (UniProt Q99453); assay: two-hybrid; mammalian two-hybrid (CheckMate, Promega) in neuroblastoma SK-N-BE(2)C cells; GAL4 BD fusion (pBIND) and VP16 AD fusion (pACT), 80 fmol each, with 160 fmol pG5LUC; Dual-Luciferase assay

PHOX2B +7Ala fused to GAL4 BD or VP16 AD (from UniProt Q99453 1-314) (natural protein)
fold increase in luciferase activity [1]: 1.7 fold

PHOX2B +7 alanine mutant, MYC- or HA-tagged (from UniProt Q99453 1-314) (natural protein)
luciferase activity of the DBH promoter reporter in HeLa cells co-transfected with PHOX2A and the PHOX2B +7 alanine mutant (fold over the empty vector) [2]: 23

PHOX2B +13Ala fused to GAL4 BD or VP16 AD (from UniProt Q99453 1-314) (natural protein)
fold increase in luciferase activity [3]: 2 fold
